Reference: the supplement of paper PMC9112550, “Optimization of the antimicrobial peptide Bac7 by deep mutational scanning” (BMC Biology, 2022)

Tested on: Escherichia coli TOP10
Assay: shrunken log2 fold change of peptide-encoding DNA abundance (4.5 h post-induction vs induction); higher = less antimicrobial activity (less host growth inhibition)
Conditions: time post-induction: 4.5 h; library: site-saturation at positions 5, 18, 19, 20
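Also: peptides expressed intracellularly from a pBAD plasmid library in pooled LB shake-flask culture, induced with 0.3% L-arabinose, DNA abundance read by NGS, three biological replicates, DESeq2 with apeglm shrinkage.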

| Sequence | shrunken log2 fold change |
| --- | --- |
| RRIRSRPPRLPRPRPRPVADPRP | 0.0874 |
| RRIRPRPPRLPRPRPRPSTEPRP | -0.0218 |
| RRIRYRPPRLPRPRPRPTAFPRP | 0.0438 |
| RRIRARPPRLPRPRPRPISEPRP | 0.0696 |
| RRIRRRPPRLPRPRPRPMLHPRP | 0.385 |
| RRIRFRPPRLPRPRPRPTHCPRP | -0.0892 |
| RRIRPRPPRLPRPRPRPKERPRP | 0.128 |
| RRIRTRPPRLPRPRPRPSVSPRP | -0.386 |
| RRIRCRPPRLPRPRPRPEFSPRP | 0.072 |
| RRIRGRPPRLPRPRPRPLMLPRP | 0.462 |
| RRIRDRPPRLPRPRPRPPYWPRP | 0.246 |
| RRIRVRPPRLPRPRPRPHPFPRP | -0.0878 |
| RRIRIRPPRLPRPRPRPTMYPRP | -0.769 |
| RRIRWRPPRLPRPRPRPQKTPRP | 0.119 |
| RRIRKRPPRLPRPRPRPWSHPRP | 0.0601 |
| RRIRSRPPRLPRPRPRPFEFPRP | -0.42 |
| RRIRIRPPRLPRPRPRPCWRPRP | 0.157 |
| RRIRLRPPRLPRPRPRPFPDPRP | -0.0465 |
| RRIRQRPPRLPRPRPRPGIDPRP | 0.0179 |
| RRIRMRPPRLPRPRPRPGRTPRP | 0.894 |
| RRIRMRPPRLPRPRPRPFHLPRP | -0.0432 |
| RRIRHRPPRLPRPRPRPMQNPRP | -0.0144 |
| RRIRPRPPRLPRPRPRPIMWPRP | 0.253 |
| RRIRTRPPRLPRPRPRPIPCPRP | -0.0839 |
| RRIRTRPPRLPRPRPRPCKQPRP | -0.254 |

| Sequence | shrunken log2 fold change |
| --- | --- |
| RRIRLRPPRLPRPRPRPTDCPRP | -0.197 |
| RRIRARPPRLPRPRPRPSWKPRP | 0.237 |
| RRIRTRPPRLPRPRPRPEKIPRP | 0.0436 |
| RRIRMRPPRLPRPRPRPESFPRP | 0.0441 |
| RRIRSRPPRLPRPRPRPNPGPRP | -0.17 |
| RRIRVRPPRLPRPRPRPCALPRP | -0.115 |
| RRIRLRPPRLPRPRPRPDYRPRP | -0.0122 |
| RRIRHRPPRLPRPRPRPAQHPRP | -0.14 |
| RRIRLRPPRLPRPRPRPHWVPRP | -0.189 |
| RRIRGRPPRLPRPRPRPWRRPRP | 0.054 |
| RRIRERPPRLPRPRPRPLYMPRP | -0.748 |
| RRIRHRPPRLPRPRPRPQACPRP | -0.208 |
| RRIRCRPPRLPRPRPRPNMMPRP | -0.475 |
| RRIRDRPPRLPRPRPRPYQFPRP | -0.0464 |
| RRIRVRPPRLPRPRPRPPWLPRP | 0.365 |
| RRIRNRPPRLPRPRPRPIVPPRP | -0.382 |
| RRIRGRPPRLPRPRPRPPEHPRP | 0.853 |
| RRIRERPPRLPRPRPRPQMEPRP | 0.00522 |
| RRIRFRPPRLPRPRPRPMYKPRP | -0.662 |
| RRIRPRPPRLPRPRPRPAQWPRP | 0.384 |
| RRIRPRPPRLPRPRPRPGQTPRP | -0.00112 |
| RRIRFRPPRLPRPRPRPWAEPRP | 0.212 |
| RRIRVRPPRLPRPRPRPWGEPRP | 0.136 |
| RRIRGRPPRLPRPRPRPMGLPRP | -0.0139 |
| RRIRARPPRLPRPRPRPRIWPRP | 0.164 |

| Sequence | shrunken log2 fold change |
| --- | --- |
| RRIRFRPPRLPRPRPRPDQNPRP | -0.203 |
| RRIRIRPPRLPRPRPRPPTFPRP | -0.166 |
| RRIRPRPPRLPRPRPRPAYMPRP | -0.231 |
| RRIRNRPPRLPRPRPRPHNQPRP | -0.7 |
| RRIRMRPPRLPRPRPRPKIPPRP | 0.365 |
| RRIRDRPPRLPRPRPRPHQPPRP | -0.017 |
| RRIRWRPPRLPRPRPRPVDPPRP | 0.158 |
| RRIRFRPPRLPRPRPRPKCQPRP | 0.274 |
| RRIRLRPPRLPRPRPRPDDNPRP | -0.138 |
| RRIRARPPRLPRPRPRPCDLPRP | 0.15 |
| RRIRLRPPRLPRPRPRPCLSPRP | 0.00058 |
| RRIRCRPPRLPRPRPRPCNAPRP | -0.448 |
| RRIRPRPPRLPRPRPRPFEGPRP | -0.0632 |
| RRIRIRPPRLPRPRPRPFAFPRP | -0.155 |
| RRIRRRPPRLPRPRPRPQLEPRP | 0.059 |
| RRIRKRPPRLPRPRPRPYCEPRP | -0.102 |
| RRIRDRPPRLPRPRPRPNAWPRP | -0.0496 |
| RRIRTRPPRLPRPRPRPILVPRP | -0.0468 |
| RRIRHRPPRLPRPRPRPTFAPRP | 3.26 |
| RRIRWRPPRLPRPRPRPMIIPRP | -0.0264 |
| RRIRLRPPRLPRPRPRPELCPRP | 0.173 |
| RRIRFRPPRLPRPRPRPNCEPRP | 0.194 |
| RRIRLRPPRLPRPRPRPWLAPRP | -0.218 |
| RRIRMRPPRLPRPRPRPPWQPRP | 0.763 |
| RRIRMRPPRLPRPRPRPCTGPRP | -0.0444 |

| Sequence | shrunken log2 fold change |
| --- | --- |
| RRIRKRPPRLPRPRPRPRNTPRP | -0.0381 |
| RRIRWRPPRLPRPRPRPDCLPRP | 0.166 |
| RRIRIRPPRLPRPRPRPVCSPRP | -0.174 |
| RRIRCRPPRLPRPRPRPKEQPRP | 0.0429 |
| RRIRNRPPRLPRPRPRPIHHPRP | -0.383 |
| RRIRHRPPRLPRPRPRPDCCPRP | -0.0827 |
| RRIRQRPPRLPRPRPRPIFYPRP | -0.418 |
| RRIRNRPPRLPRPRPRPSMFPRP | -0.458 |
| RRIRERPPRLPRPRPRPVINPRP | -0.217 |
| RRIRIRPPRLPRPRPRPIRPPRP | -0.277 |
| RRIRIRPPRLPRPRPRPYKKPRP | -0.0756 |
| RRIRKRPPRLPRPRPRPHWAPRP | 0.118 |
| RRIRFRPPRLPRPRPRPWVGPRP | -0.0721 |
| RRIRHRPPRLPRPRPRPACDPRP | 0.285 |
| RRIRDRPPRLPRPRPRPFCQPRP | -0.00439 |
| RRIRERPPRLPRPRPRPYSVPRP | -0.114 |
| RRIRHRPPRLPRPRPRPANLPRP | -0.00674 |
| RRIRVRPPRLPRPRPRPNMPPRP | -0.0801 |
| RRIRIRPPRLPRPRPRPHGNPRP | 0.142 |
| RRIRFRPPRLPRPRPRPKLHPRP | -0.0553 |
| RRIRMRPPRLPRPRPRPMNLPRP | 0.11 |
| RRIRIRPPRLPRPRPRPSGGPRP | 0.0858 |
| RRIRCRPPRLPRPRPRPRQLPRP | 0.0916 |
| RRIRHRPPRLPRPRPRPGWSPRP | 0.0123 |
| RRIRKRPPRLPRPRPRPINFPRP | -0.962 |

| Sequence | shrunken log2 fold change |
| --- | --- |
| RRIRVRPPRLPRPRPRPGRHPRP | 0.0728 |
| RRIRIRPPRLPRPRPRPHVPPRP | -0.00519 |
| RRIRNRPPRLPRPRPRPDWFPRP | -0.0803 |
| RRIRSRPPRLPRPRPRPQWHPRP | -0.26 |
| RRIRARPPRLPRPRPRPNSPPRP | -0.138 |
| RRIRLRPPRLPRPRPRPCLLPRP | -0.421 |
| RRIRVRPPRLPRPRPRPYIMPRP | -0.937 |
| RRIRYRPPRLPRPRPRPRVKPRP | 0.0364 |
| RRIRKRPPRLPRPRPRPLAAPRP | 0.847 |
| RRIRHRPPRLPRPRPRPQCIPRP | -0.235 |
| RRIRTRPPRLPRPRPRPAMPPRP | 0.131 |
| RRIRSRPPRLPRPRPRPHAEPRP | 0.156 |
| RRIRCRPPRLPRPRPRPFYLPRP | -0.564 |
| RRIRWRPPRLPRPRPRPDGLPRP | 0.393 |
| RRIRDRPPRLPRPRPRPKFYPRP | 0.0101 |
| RRIRMRPPRLPRPRPRPERIPRP | 0.0158 |
| RRIRLRPPRLPRPRPRPWWGPRP | -0.063 |
| RRIRPRPPRLPRPRPRPRLKPRP | 0.344 |
| RRIRFRPPRLPRPRPRPHWEPRP | -0.0104 |
| RRIRFRPPRLPRPRPRPQECPRP | 0.0519 |
| RRIRHRPPRLPRPRPRPSMHPRP | -0.705 |
| RRIRSRPPRLPRPRPRPKNCPRP | -0.149 |
| RRIRKRPPRLPRPRPRPIAEPRP | 0.0504 |
| RRIRPRPPRLPRPRPRPFICPRP | -0.276 |
| RRIRPRPPRLPRPRPRPIMCPRP | -0.221 |
